Test results taken from article PMC7755903 (Nature Communications, 2020).
Numbering of substitutions follows the chain as printed. Names and notes keep the numbering of the source. Values joined by “and” are separate entries in the source; they are usually repeats but may differ in a detail not shown here. Equal entries are not always repeated.

B1: E104.v2 IgG1 hinge variant G1-H (antibody, V domains shown)
VH: EVQLVESGPGLVKPSETLSLTCTVSRFSLIGYAITWIRQPPGKGLEWIGGISSAATTFYSSWAKSRVTISRDTSKNQVSLKLSSVTAADTAVYYCARDPRGYGAALDRLDLWGQGTLVTVSS
VL: DIQMTQSPSSLSASVGDRVTITCQSIKSVYNNRLGWYQQKPGKAPKLLIYETSILTSGVPSRFSGSGSGTDFTLTISSLQPEDFATYYCAGGFDRSGDTTFGQGTKVEIK
notes: humanized E104.v2 VH: as the VH of Sm2 (E104.v1, PDB 6VVU heavy chain) with V71R and F78V (Kabat numbering); human IgG1 heavy chain constant region, the CH1 domain up to the upper hinge; human IgG1 heavy chain constant region after the upper hinge (core and lower hinge, CH2, CH3); IgG1 with shortened upper hinge; copies: 2 + 2
B2: E104.v2 IgG1 hinge variant G1 + G (antibody, V domains shown)
VH: B1 VH
VL: B1 VL
notes: variable domain of the heavy chain as in m6 (PDB 6VVU, Fab heavy chain) with V71R and F78V (Kabat numbering); human IgG1 heavy chain constant region before the upper hinge (CH1); upper hinge of the variant; human IgG1 heavy chain constant region after the upper hinge (core hinge from C226, CH2, CH3); as the light chain of m6 (PDB 6VVU, Fab light chain); IgG1 with an extended upper hinge; source: …
B3: E104.v2 IgG1 hinge variant G1-H (antibody, V domains shown)
VH: B1 VH
VL: B1 VL
notes: variable domain of the heavy chain as in m6 (PDB 6VVU, Fab heavy chain) with V71R and F78V (Kabat numbering); human IgG1 heavy chain constant region before the upper hinge (CH1); upper hinge of the variant; human IgG1 heavy chain constant region after the upper hinge (core hinge from C226, CH2, CH3); as the light chain of m6 (PDB 6VVU, Fab light chain); IgG1 with a shortened upper hinge; source: …
B4: E104.v2 IgG1 hinge variant G1-TH (antibody, V domains shown)
VH: B1 VH
VL: B1 VL
notes: as for B1
B5: E104.v2 Fab (Fab, V domains shown)
VH: B1 VH
VL: B1 VL
notes: as the heavy chain of m6 (PDB 6VVU, Fab heavy chain) with the two framework changes V71R and F78V (Kabat numbering); as the light chain of m6 (PDB 6VVU, Fab light chain); No structure of v2 was obtained; it differs from v1 only at heavy chain framework positions 71 and 78; also called Fab E104.v2; source: E. coli, purified (Protein G, SP Sepharose, S75 SEC)
B6: humanized E104.v2 IgG4 (antibody, V domains shown)
VH: B1 VH
VL: B1 VL
notes: variable domain of the heavy chain as in m6 (PDB 6VVU, Fab heavy chain) with V71R and F78V (Kabat numbering); human IgG4 heavy chain constant region; upper hinge printed as ESKYGPP; as the light chain of m6 (PDB 6VVU, Fab light chain); IgG4 isotype version of E104.v2; source: 293 cells, transient transfection, purified (MabSelect SuRe, SEC); copies: 2 + 2
B7: humanized E104.v1 IgG1 (antibody, V domains shown)
VH: B1 VH with R71V, V78F
VL: B1 VL
notes: humanized E104.v1 VH (rabbit E104 CDRs on the human VHIV consensus framework); Kabat numbering; human IgG1 heavy chain constant region, the CH1 domain up to the upper hinge; upper hinge of human IgG1, wild type; human IgG1 heavy chain constant region after the upper hinge (core and lower hinge, CH2, CH3); humanized E104 light chain (rabbit E104 CDRs on the human VLKI consensus framework); IgG1; …
B8: humanized E104.v2 IgG2 (antibody, V domains shown)
VH: B1 VH
VL: B1 VL
notes: humanized E104.v2 VH: as the VH of Sm2 (E104.v1, PDB 6VVU heavy chain) with V71R and F78V (Kabat numbering); human IgG2 heavy chain constant region, the CH1 domain up to the upper hinge; upper hinge of human IgG2; human IgG2 heavy chain constant region after the upper hinge (core and lower hinge, CH2, CH3); IgG2 isotype version of E104.v2; copies: 2 + 2
B9: humanized E104.v2 IgG1 (antibody, V domains shown)
VH: B1 VH
VL: B1 VL
notes: variable domain of the heavy chain as in m6 (PDB 6VVU, Fab heavy chain) with V71R and F78V (Kabat numbering); human IgG1 heavy chain constant region; as the light chain of m6 (PDB 6VVU, Fab light chain); IgG1; also called IgG1.v2; WT IgG1 hinge; source: 293 cells, transient transfection, purified (MabSelect SuRe, SEC); copies: 2 + 2
B10: E104.v2 IgG1 hinge variant G1-H (antibody, V domains shown)
VH: B1 VH
VL: B1 VL
B11: E104.v2 IgG1 hinge variant G1-TH (antibody, V domains shown)
VH: B1 VH
VL: B1 VL
notes: as for B3
B12: E104.v2 IgG1 hinge variant G1.CC (antibody, V domains shown)
VH: B1 VH
VL: B1 VL
notes: variable domain of the heavy chain as in m6 (PDB 6VVU, Fab heavy chain) with V71R and F78V (Kabat numbering); human IgG1 heavy chain constant region before the upper hinge (CH1); upper hinge of the variant; human IgG1 heavy chain constant region after the upper hinge (core hinge from C226, CH2, CH3); as the light chain of m6 (PDB 6VVU, Fab light chain); IgG1 with two added cysteines in the upper …
B13: E104.v2 IgG1 hinge variant G1 + GG (antibody, V domains shown)
VH: B1 VH
VL: B1 VL
notes: as for B2
B14: E104.v2 IgG1 hinge variant G1-KTH (antibody, V domains shown)
VH: B1 VH
VL: B1 VL
notes: as for B3
B15: E104.v2 IgG1 hinge variant G1.G5 (antibody, V domains shown)
VH: B1 VH
VL: B1 VL
notes: variable domain of the heavy chain as in m6 (PDB 6VVU, Fab heavy chain) with V71R and F78V (Kabat numbering); human IgG1 heavy chain constant region before the upper hinge (CH1); upper hinge of the variant; human IgG1 heavy chain constant region after the upper hinge (core hinge from C226, CH2, CH3); as the light chain of m6 (PDB 6VVU, Fab light chain); IgG1 with five glycines in the upper hinge; …
B16: E104.v2 IgG1 hinge variant G1 + GGS (antibody, V domains shown)
VH: B1 VH
VL: B1 VL
notes: humanized E104.v2 VH: as the VH of Sm2 (E104.v1, PDB 6VVU heavy chain) with V71R and F78V (Kabat numbering); human IgG1 heavy chain constant region, the CH1 domain up to the upper hinge; human IgG1 heavy chain constant region after the upper hinge (core and lower hinge, CH2, CH3); IgG1 with extended upper hinge; copies: 2 + 2
B17: wild-type (WT) tetrameric human βI-tryptase (enzyme)
chain: not shown
notes: mature human βI-tryptase, Ile31-Pro275 of Uniprot Q15661 (Ile16-Pro246 in chymotrypsinogen numbering); N-terminus IVGG after enterokinase cleavage; Homotetramer; residues in the results are in chymotrypsinogen numbering; also called βI-tryptase tetramer; tetrameric β-tryptase; source: Trichoplusia ni cells (baculovirus), secreted, purified (Ni-NTA, S200 SEC); zymogen cleaved with enterokinase in …

Legend:
[1] = target: T1, human βI-tryptase monomer (Homo sapiens, UniProt Q15661); experiment: SPR; Biacore T200; antibody captured on a CM5 chip by immobilised mouse anti-human IgG (Fc); threefold dilutions of βI-tryptase monomer injected at 30 µL/min, 25 °C, 3-min association, 10-min dissociation; 1:1 Langmuir fit; n = 2; conditions: both partners purified
T1 construct: mature wild-type human βI-tryptase, Uniprot Q15661, Ile31-Pro275 (Ile16-Pro246 in chymotrypsinogen numbering); The SPR methods say only 'human βI-tryptase monomer'; The methods describe the monomeric form as the zymogen, which still carries the N-terminal His6 tag and enterokinase site before Ile16; also called monomeric βI-tryptase; β-tryptase; source: Trichoplusia ni cells (baculovirus, …)
T1 sequence (Q15661 31-275): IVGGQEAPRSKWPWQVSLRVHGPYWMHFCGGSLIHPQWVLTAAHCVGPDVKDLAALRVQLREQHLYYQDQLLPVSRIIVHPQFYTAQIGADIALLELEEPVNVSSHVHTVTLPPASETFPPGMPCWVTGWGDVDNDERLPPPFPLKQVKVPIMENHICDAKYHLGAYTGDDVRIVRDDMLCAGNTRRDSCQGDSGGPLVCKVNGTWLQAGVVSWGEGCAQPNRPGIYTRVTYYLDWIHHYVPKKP

[2] = target: T2, human βI-tryptase monomer (Homo sapiens, UniProt Q15661); experiment: SPR; Biacore T200; E104 IgG variants captured on immobilised mouse anti-human IgG (Fc) antibody on CM5 chips; threefold dilutions of human βI-tryptase monomer injected at 30 µL/min, 25 °C; 1:1 Langmuir model; n = 2; conditions: both partners purified
T2 construct: mature human βI-tryptase, Ile31-Pro275 of Uniprot Q15661 (Ile16-Pro246 in chymotrypsinogen numbering); The monomer used in SPR and HDX-MS; also called monomeric βI-tryptase; monomeric β-tryptase
T2 sequence (Q15661 31-275): as above

[3] = target: T3, βI-tryptase tetramer mutant I99C (human, engineered disulfide bond in the large interface (C99)); experiment: SEC; without heparin; tetrameric βI-tryptase (WT, Y75C or I99C) or zymogen monomer mixed with a twofold molar excess of Fab, 15 min at 25 °C; S200GL column in 10 mM MOPS pH 6.8, 2 M NaCl; fractions checked by SDS-PAGE; conditions: both partners purified
T3 construct: mature human βI-tryptase, Ile31-Pro275 of Uniprot Q15661 (Ile16-Pro246 in chymotrypsinogen numbering); numbers count on: chymotrypsinogen numbering; Loaded as a tetramer; with E104.v2 Fab it runs as a complex of the disulfide-linked dimer; also called disulfide-locked large interface mutant; not shown: His6, N-terminal, cleaved
T3 sequence (chain, as listed by the source I99C I99C): as the sequence (Q15661 31-275) above, with I88C counted along it

[4] = target: T4, human βI-tryptase monomer (Homo sapiens, UniProt Q15661); experiment: SPR; Biacore T200; anti-tryptase IgG variant captured on a CM5 chip with anti-human IgG (Fc) antibody; threefold dilutions of human βI-tryptase monomer injected at 30 µL/min, 25 °C, 3-min association, 10-min dissociation; 1:1 binding model; representative single sensorgram sets; conditions: both partners purified
T4 construct: mature wild-type human βI-tryptase, Uniprot Q15661, Ile31-Pro275 (Ile16-Pro246 chymotrypsinogen numbering); also called monomeric βI-tryptase; β1-tryptase; source: Trichoplusia ni cells (baculovirus), secreted, purified (Ni-NTA, S200 SEC)
T4 sequence (Q15661 31-275): as the sequence (Q15661 31-275) above

[5] = target: the molecule itself; experiment: crystal structure; E104.v1 Fab with tetrameric βI-tryptase; crystals at 19 °C, 0.1 M Tris pH 8.5, 0.2 M CaCl2, 20% PEG 4000, 4% pentaerythritol ethoxylate; 3.0 Å

Binder	Kd [2] [nM]	also measured
B1		Kd [1]: 0.68 nM and 0.494 nM
B2	0.5 ± 0.01	
B3	0.6 ± 0.1	
B4		Kd [1]: 0.56 nM and 0.471 nM
B5		stoichiometry N [3]: 2 Fab per disulfide-linked dimer
B6	0.7 ± 0.04	
B7		Kd [1]: 0.543 nM and 0.521 nM
B8		Kd [1]: 0.537 nM and 0.672 nM
B9	0.6 ± 0.01	
B10		Kd [4]: 0.68 nM
B11	0.5 ± 0.07	
B12	0.4 ± 0.03	
B13	0.4 ± 0.02	
B14	0.5 ± 0.09	
B15	0.6 ± 0.1	
B16		Kd [1]: 0.435 nM and 0.502 nM
B17		stoichiometry N [5]: 4
